In patent publication US20260151494A1 (ARO BIOTHERAPEUTICS, published 2026):
Positions count from the first letter of the chain named.

B1: CD71-binding FN3 domain of SEQ ID NO: 155 (designed binder)
chain: MSLPAPENLVVSRVTEDSARLSWTAPDAAFDSFEIGYFENLYLGEAIVLTVPGSERSYDLTGLKPGTEYWVQIGGVKGGVWSRPLSAIFTT
B2: CD71-binding FN3 domain of SEQ ID NO: 156 (designed binder)
chain: B1 chain with E7K, N40M, L41S, Y42W, L43T, W70V, Q72F, V80N, R83A
B3: CD71-binding FN3 domain of SEQ ID NO: 157 (designed binder)
chain: B1 chain with E7K, F38G, N40F, L41T, L43Y, V80N, R83N
B4: CD71-binding FN3 domain of SEQ ID NO: 158 (designed binder)
chain: B1 chain with E7K, G36A, N40R, L41T, Y42W, L43F, V80D, R83K
B5: CD71-binding FN3 domain of SEQ ID NO: 159 (designed binder)
chain: B1 chain with E7K, G36V, F38Q, L41S, Y42A, L43Y, V80N, R83A, F89S
B6: CD71-binding FN3 domain of SEQ ID NO: 160 (designed binder)
chain: B1 chain with E7K, V80N, R83V
B7: CD71-binding FN3 domain of SEQ ID NO: 164 (designed binder)
chain: MSLPAPKNLVVSRVTEDSARLSWTAPDAAFDSFFIGYLEPQPPGEAIHLYVPGSERSYDLTGLKPGTEYWVQIGGVKGGNWSAPLSAIFTT
B8: CD71-binding FN3 domain of SEQ ID NO: 166 (designed binder)
chain: B1 chain with E7K, V76I, V80N, R83A
B9: CD71-binding FN3 domain of SEQ ID NO: 169 (designed binder)
chain: B1 chain with E7K, V80N, R83A, I88T
B10: CD71-binding FN3 domain of SEQ ID NO: 170 (designed binder)
chain: B1 chain with E7K, V80N, R83T
B11: CD71-binding FN3 domain of SEQ ID NO: 171 (designed binder)
chain: B1 chain with E7K, V80E, R83S
B12: CD71-binding FN3 domain of SEQ ID NO: 172 (designed binder)
chain: MSRPAPKNLVVSRVTEDSARLSWTAPGAAFDSFEIAYFERTWFGEAIVLTVPSSERSYDLTGLKPGTEYWVQIGGVKGGDWSKPLSAIFTT
B13: CD71-binding FN3 domain of SEQ ID NO: 173 (designed binder)
chain: MSLPAPKNLVVSRVTEDSARLSWTAPDAAFDSFEIAYQELSLWGEAIVLTVPGSERSYDLTGLKPGTEYYVHIGGVKGGIWSSPLVAHFTT
B14: CD71-binding FN3 domain of SEQ ID NO: 174 (designed binder)
chain: B1 chain with E7K, D27N, V80N, R83A
B15: CD71-binding FN3 domain of SEQ ID NO: 175 (designed binder)
chain: B13 chain with Y70V, H72F, I80V, S83V, V86S, H88I
B16: CD71-binding FN3 domain of SEQ ID NO: 176 (designed binder)
chain: B7 chain with Y50F
B17: CD71-binding FN3 domain of SEQ ID NO: 177 (designed binder)
chain: B1 chain with E7K, G62S, V80N, R83A
B18: CD71-binding FN3 domain of SEQ ID NO: 181 (designed binder)
chain: B1 chain with E7K, L41D, L43F, V80N, R83A
B19: CD71-binding FN3 domain of SEQ ID NO: 182 (designed binder)
chain: B1 chain with F38W, L41A, L43K, W70V, Q72F, R83V, A87V
B20: CD71-binding FN3 domain of SEQ ID NO: 183 (designed binder)
chain: B1 chain with E7K, V11I, G36V, F38A, N40P, L41V, Y42R, L43F, V80E, R83S
B21: CD71-binding FN3 domain of SEQ ID NO: 184 (designed binder)
chain: B12 chain with R3L, L21P, G27D, S53G
B22: CD71-binding FN3 domain of SEQ ID NO: 186 (designed binder)
chain: B1 chain with E7K, L41P, V80N, R83A
B23: CD71-binding FN3 domain of SEQ ID NO: 187 (designed binder)
chain: B1 chain with E7K, F38W, L41A, L43K, W70R, Q72W
B24: CD71-binding FN3 domain of SEQ ID NO: 188 (designed binder)
chain: B1 chain with E7K, F38W, L41A, L43K, W70V, Q72F, V80H, W81G, R83Q
B25: CD71-binding FN3 domain of SEQ ID NO: 189 (designed binder)
chain: B1 chain with E7K, N40H, L41T, L43Y, V80N, R83A
B26: CD71-binding FN3 domain of SEQ ID NO: 190 (designed binder)
chain: B1 chain with E7K, V11I, V80N, R83A, F89S
B27: CD71-binding FN3 domain of SEQ ID NO: 191 (designed binder)
chain: B1 chain with E7K, T61A, V80N, R83A
B28: CD71-binding FN3 domain of SEQ ID NO: 192 (designed binder)
chain: B1 chain with E7K, V80W, W81G, R83N

Key:
[1] = target: T1, human CD71 extracellular domain (human, UniProt P02786 89-760); test: primary ELISA; also: test concentration or dose not given here
T1 construct: also called hCD71; human CD71-ECD

[2] = target: T2, apical domain of cynomolgus CD71 (cynomolgus, UniProt A0A2K5X958 189-383); test: primary ELISA; also: test concentration or dose not given here
T2 construct: domain: apical domain; also called Cyno apical domain

[3] = target: T1, human CD71 extracellular domain; test: primary ELISA, signal ratio to HSA
[4] = target: T2, apical domain of cynomolgus CD71; test: primary ELISA, signal ratio to HSA

T2 sequence (A0A2K5X958 entry or part of it): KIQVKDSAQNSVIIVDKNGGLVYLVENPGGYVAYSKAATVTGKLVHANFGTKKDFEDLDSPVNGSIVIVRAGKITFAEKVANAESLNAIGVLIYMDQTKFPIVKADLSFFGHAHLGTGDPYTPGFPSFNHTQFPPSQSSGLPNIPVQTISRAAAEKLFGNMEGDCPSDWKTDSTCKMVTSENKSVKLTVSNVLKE
T1 sequence (P02786 89-760): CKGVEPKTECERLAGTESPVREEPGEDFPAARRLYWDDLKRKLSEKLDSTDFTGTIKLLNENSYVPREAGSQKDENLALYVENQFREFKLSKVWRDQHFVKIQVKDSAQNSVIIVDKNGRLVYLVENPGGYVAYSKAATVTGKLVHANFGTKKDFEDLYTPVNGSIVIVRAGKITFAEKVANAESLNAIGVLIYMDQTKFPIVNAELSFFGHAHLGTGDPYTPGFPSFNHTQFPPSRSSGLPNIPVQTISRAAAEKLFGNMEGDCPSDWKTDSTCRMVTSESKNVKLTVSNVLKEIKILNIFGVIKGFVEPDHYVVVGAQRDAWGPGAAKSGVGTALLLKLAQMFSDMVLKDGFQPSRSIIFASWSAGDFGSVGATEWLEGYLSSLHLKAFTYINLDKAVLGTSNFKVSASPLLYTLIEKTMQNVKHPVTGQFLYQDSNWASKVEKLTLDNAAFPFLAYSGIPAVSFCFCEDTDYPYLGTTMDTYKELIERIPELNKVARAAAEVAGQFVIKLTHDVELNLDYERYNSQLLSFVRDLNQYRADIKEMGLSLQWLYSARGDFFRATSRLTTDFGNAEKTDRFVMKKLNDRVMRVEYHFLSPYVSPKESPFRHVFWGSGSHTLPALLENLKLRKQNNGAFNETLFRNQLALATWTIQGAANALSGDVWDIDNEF

| Binder | RLU [1] | RLU [2] | hCD71:HSA [3] | Cyno apical domain:HSA [4] |
| --- | --- | --- | --- | --- |
| B1 | 3.55e+06 RLU | 5.19e+06 RLU | 151 | 220 |
| B2 | 3.68e+06 RLU | 4.43e+06 RLU | 69 | 83 |
| B3 | 2.89e+06 RLU | 4.32e+06 RLU | 355 | 530 |
| B4 | 4.48e+06 RLU | 4.63e+06 RLU | 96 | 99 |
| B5 | 2.64e+06 RLU | 4.77e+06 RLU | 40 | 72 |
| B6 | 4.38e+06 RLU | 5.02e+06 RLU | 88 | 100 |
| B7 | 5.55e+06 RLU | 3.78e+06 RLU | 286 | 195 |
| B8 | 4.44e+06 RLU | 5.02e+06 RLU | 153 | 173 |
| B9 | 2.63e+06 RLU | 4.35e+06 RLU | 289 | 478 |
| B10 | 3.81e+06 RLU | 5e+06 RLU | 127 | 166 |
| B11 | 4.4e+06 RLU | 4.93e+06 RLU | 109 | 122 |
| B12 | 4.34e+06 RLU | 5.23e+06 RLU | 31 | 37 |
| B13 | 4.41e+06 RLU | 5.65e+06 RLU | 234 | 300 |
| B14 | 3.61e+06 RLU | 4.71e+06 RLU | 127 | 165 |
| B15 | 1.01e+06 RLU | 4.29e+06 RLU | 21 | 91 |
| B16 | 7.01e+06 RLU | 6.06e+06 RLU | 172 | 149 |
| B17 | 3.22e+06 RLU | 4.54e+06 RLU | 110 | 156 |
| B18 | 2.84e+06 RLU | 4.61e+06 RLU | 133 | 216 |
| B19 | 3.81e+06 RLU | 4.96e+06 RLU | 101 | 131 |
| B20 | 3.19e+06 RLU | 4.47e+06 RLU | 108 | 15 |
| B21 | 3.74e+06 RLU | 5.08e+06 RLU | 74 | 101 |
| B22 | 3.63e+06 RLU | 4.75e+06 RLU | 117 | 153 |
| B23 | 3.06e+06 RLU | 4.22e+06 RLU | 67 | 93 |
| B24 | 1.11e+06 RLU | 3.37e+06 RLU | 33 | 100 |
| B25 | 3.45e+06 RLU | 4.87e+06 RLU | 1380 | 1950 |
| B26 | 3.66e+06 RLU | 5.2e+06 RLU | 48 | 68 |
| B27 | 4.2e+06 RLU | 4.99e+06 RLU | 92 | 109 |
| B28 | 2.67e+06 RLU | 3.91e+06 RLU | 61 | 90 |
